# Results: paper PMC5552852, “Structural basis for Ccd1 auto-inhibition in the Wnt pathway through homomerization of the DIX domain” (Scientific Reports, 2017)
# Where a chain is given by its changes, count along the chain named. Names and notes keep the numbering of the source.
# T1: mCcd1 DIX domain L402A
# T1 chain: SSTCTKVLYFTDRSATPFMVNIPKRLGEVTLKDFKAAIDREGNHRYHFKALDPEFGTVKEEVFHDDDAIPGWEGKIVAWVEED
# T2: mCcd1 DIX domain W466A
# T2 chain: T1 chain with A15L, W79A
# T3: mCcd1 DIX domain F397A
# T3 chain: T1 chain with F10A, A15L
# T4: MBP-fused zCcd1 DIX (zebrafish, UniProt Q804T6 356-438)
# T4 construct: DIX domain of zebrafish Ccd1, cDNA Gene ID 360137; The uncleaved precursor of m2; also called MBP-fused zCcd1 DIX domain; source: E. coli (plasmid pOPINM), purified (amylose resin)
# T4 sequence (looked up): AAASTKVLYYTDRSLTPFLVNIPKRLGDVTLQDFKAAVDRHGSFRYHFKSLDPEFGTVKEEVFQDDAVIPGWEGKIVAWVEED
# B1: mouse Coiled-coil-DIX1 (mCcd1) DIX domain L402A (protein)
# chain: T1 chain
# B2: mouse Coiled-coil-DIX1 (mCcd1) DIX domain W466A (protein)
# chain: T1 chain with A15L, W79A
# B3: mouse Coiled-coil-DIX1 (mCcd1) DIX domain F397A (protein)
# chain: T1 chain with F10A, A15L
# B4: zebrafish Coiled-coil-DIX1 (zCcd1) DIX domain (domain or fragment, UniProt Q804T6 356-438, looked up)
# chain: T4 sequence (looked up)
# notes: DIX domain of zebrafish Coiled-coil-DIX1 (zCcd1), residues 356-438, cDNA Gene ID 360137; also called zCcd DIX domain; Zebrafish CCD1; source: E. coli (plasmid pOPINM), purified (amylose resin, HRV3C cleavage, HiTrap Q)
# B5: Axin DIX domain (domain or fragment, UniProt O70239 745-827, looked up)
# chain: CDSIVVAYYFCGEPIPYRTLVRGRAVTLGQFKELLTKKGSYRYYFKKVSDEFDCGVVFEEVREDEAILPVFEEKIIGKVEKVD
# notes: DIX domain of Axin; source: E. coli, expressed as a fusion construct with GST or MBP, purified
# Assays:
# [1] = molecular target: mCcd1 DIX domain R400A (mouse)
# [2] = molecular target: mCcd1 DIX domain D399A (mouse)
# [3] = molecular target: mCcd1 DIX domain L402A (mouse)
# mCcd1 DIX domain L402A = molecular target: T1, mCcd1 DIX domain L402A; test: dynamic light scattering; details: chain shown with the change;; parent: est. 4.4; read off a plot
# mCcd1 DIX domain W466A = molecular target: T2, mCcd1 DIX domain W466A; test: dynamic light scattering; details: chain shown with the change;; parent: est. 4.4; read off a plot
# mCcd1 DIX domain F397A = molecular target: T3, mCcd1 DIX domain F397A; test: dynamic light scattering; details: chain shown with the change;; parent: est. 4.4; read off a plot
# [4] = molecular target: the molecule itself; test: SEC; gel filtration chromatography of the DIX domains without carrier (Figures 1b and 4e)
# MBP-fused zCcd1 DIX = molecular target: T4, MBP-fused zCcd1 DIX; test: pull-down; MBP-fused mCcd1, zCcd1 or Dvl1 DIX (0.8 mM) held on amylose resin, Axin DIX or Dvl1 DIX free; pull-down buffer, 277 K (Figures 5f, 5g); details: both partners purified
molecule,measurement,setting,value
mCcd1 DIX domain R400A (domain or fragment),"TCF-dependent transcription (TOPflash luciferase reporter, HeLa cells transfected with FLAG-tagged mCcd1 BalphaL R400A), compared to the wild type",[1],1.4 fold
mCcd1 DIX domain D399A (domain or fragment),"TCF-dependent transcription (TOPflash luciferase reporter, HeLa cells transfected with FLAG-tagged mCcd1 BalphaL D399A), compared to the wild type",[2],1.3 fold
mCcd1 DIX domain L402A (domain or fragment),"TCF-dependent transcription (TOPflash luciferase reporter, HeLa cells transfected with FLAG-tagged mCcd1 BalphaL L402A), compared to the wild type",[3],1.5 fold
B1,other: DLS peak size (diameter) of homopolymer,mCcd1 DIX domain L402A,7.3 nm
B2,other: DLS peak size (diameter) of homopolymer,mCcd1 DIX domain W466A,8.2 nm
B3,other: DLS peak size (diameter) of homopolymer,mCcd1 DIX domain F397A,5.5 nm
B4,stoichiometry N,[4],2
B5,fold binding relative to MBP-fused mCcd1 DIX,MBP-fused zCcd1 DIX,1.53 fold
